The results in this text go back to patent publication US20230279059A1 (VIB VZW, published 2023).

First the molecules themselves.
B5: recombinant Ena1B with N-terminal 6xHis tag and TEV cleavage site (other)
chain: MHHHHHHSSGENLYFQGNCSTNLSCCANGQKTIVQDKVCIDWTAAATAAIIYADNISQDIYASGYLKVDTGTGPVTIVFYSGGVTGTAVETIVVATGSSASFTVRRFDTVTILGTAAAETGEFCMTIRYTLS
B8: Bacillus cereus NVH 0075-95 Endospore appendage (Ena) 1B, wild type (other)
chain: MGNCSTNLSCCANGQKTIVQDKVCIDWTAAATAAIIYADNISQDIYASGYLKVDTGTGPVTIVFYSGGVTGTAVETIVVATGSSASFTVRRFDTVTILGTAAAETGEFCMTIRYTLS
notes: also called WT Ena1B; WT recEna1B

Series [1] deals with the molecule itself. The experiment in a line: in vitro self-assembly after TEV cleavage, NS-TEM and cryo-EM.
Series [2] deals with the molecule itself. Description: self-assembly in the E. coli cytoplasm, NS-TEM.
The target in series [3] is T1, split-BC Ena1B, C-terminal part (strands CDEFGHI) (Bacillus cereus NVH 0075-95).
T1 construct: also called split BC construct, C-terminal half
T1 chain: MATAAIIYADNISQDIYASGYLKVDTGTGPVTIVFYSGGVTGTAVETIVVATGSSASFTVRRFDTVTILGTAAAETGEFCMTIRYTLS
Description: co-expression of the two halves in E. coli, NS-TEM.

Series [4] concerns the molecule itself. Description: self-assembly of tag-free protein in the E. coli cytoplasm, negative stain TEM.
Series [5] deals with B8. The experiment in a line: immunogold TEM and cryoEM of ex vivo S-type Enas; both subunits within single fibers.
Series [6] deals with the molecule itself. Description: self-assembly after refolding from 8M urea, negative stain TEM.
Series [7] deals with the molecule itself. Description: expression in E. coli, ns-TEM.
Series [8] concerns the molecule itself. Description: self-assembly after TEV cleavage of the His-tag, TEM.
In series [9] the target is B5. The experiment in a line: epitaxial growth on maleimide magnetic beads carrying 6×His_TEV_Ena1B multimers, nsTEM.
Series [10] deals with the molecule itself. The experiment in a line: expression in E. coli, nsTEM.
Series [11] concerns the molecule itself. The experiment in a line: self-assembly after refolding by dialysis, EM.
Series [12] concerns the molecule itself. Description: in vitro self-assembly after TEV cleavage, cryo-EM.

B1: Ena2A after removal of the 6×His-TEV blocker by TEV protease (other)
chain: MSCECSGSALTCCPDKNYVQDKVCSPWSATVVATAIDNVLYTNNINQNVVGTGFVKYDVGPGPITVEALDSAGGTIDTQTLNPGTSIAFTYRRFDSIQVVLPATPAGTYQGEFCITTRYPLS
notes: also called in vitro assembled Ena2A filament
Take B1: the binding result in series [1] was “binds”.

B2: Ena2A without steric block (other)
chain: MSCECSGSALTCCPDKNYVQDKVCSPWSATVVATAIDNVLYTNNINQNVVGTGFVKYDVGPGPITVEALDSAGGTIDTQTLNPGTSIAFTYRRFDSIQVVLPATPAGTYQGEFCITTRYPLS
notes: also called WP_001277540.1
On to B2, for which the binding result in [2] is reported as “binds”.

B3: split-BC Ena1B, N-terminal part (strands AB) (other)
chain: MGNCSTNLSCCANGQKTIVQDKVCIDWTAA
notes: also called split BC construct, N-terminal half
Consider B3, for which the binding result in series [3] is “binds”.

B4: Bacillus cereus NVH 0075-95 Endospore appendage (Ena) 1A, wild type (other)
chain: MACECSSTVLTCCSDNSSNFVQDKVCNPWSSAEASTFTVYANNVNQNIVGTGYLTYDVGPGVSPANQITVTVLDSGGGTIQTFLVNEGTSISFTFRRFNIIQITTPATPIGTYQGEFCITTRYLMA
notes: also called KMP91697.1; WP_000742049.1
For B4, the binding result in series [4] and in [5] was “binds” in each case.

As for B5, the binding result in [6] is “binds”.

B6: M-His6-SSG-Ena1B, steric block of 9 amino acids (other)
chain: MHHHHHHSSGGNCSTNLSCCANGQKTIVQDKVCIDWTAAATAAIIYADNISQDIYASGYLKVDTGTGPVTIVFYSGGVTGTAVETIVVATGSSASFTVRRFDTVTILGTAAAETGEFCMTIRYTLS
With B6, the binding result in series [7] was “binds”.

B7: M-TEV-Ena1B (M-[…]-Ena1B), steric block of 6 amino acids (other)
chain: MENLYFQGNCSTNLSCCANGQKTIVQDKVCIDWTAAATAAIIYADNISQDIYASGYLKVDTGTGPVTIVFYSGGVTGTAVETIVVATGSSASFTVRRFDTVTILGTAAAETGEFCMTIRYTLS
notes: also called M-TEV-Ena1B (N=6)
Regarding B7, in [7], the binding result is recorded as “binds”.

For the molecule B8, the binding result in series [4] was “binds”.

B9: recEna1B after removal of the N-terminal 6xHis tag by TEV protease (other)
chain: GNCSTNLSCCANGQKTIVQDKVCIDWTAAATAAIIYADNISQDIYASGYLKVDTGTGPVTIVFYSGGVTGTAVETIVVATGSSASFTVRRFDTVTILGTAAAETGEFCMTIRYTLS
notes: also called in vitro Ena1B fibers; recENA1B (PDB7A02)
As for B9, the binding result in series [8] and in series [9] was “binds” in each case.

B10: Ena1B-HI-HA insertion variant (other)
chain: MGNCSTNLSCCANGQKTIVQDKVCIDWTAAATAAIIYADNISQDIYASGYLKVDTGTGPVTIVFYSGGVTGTAVETIVVATGSSASFTVRRFDTVTILGGSYPYDVPDYAGSAAETGEFCMTIRYTLS
B10: the binding result in series [10] is listed as “binds”.

B11: recEna1BΔNtc (deletion of residues 2-15 of WT Ena1B) (other)
chain: MKTIVQDKVCIDWTAAATAAIIYADNISQDIYASGYLKVDTGTGPVTIVFYSGGVTGTAVETIVVATGSSASFTVRRFDTVTILGTAAAETGEFCMTIRYTLS
Regarding B11, in [7], the binding result is “binds”.

B12: recombinant Ena1C with N-terminal 6xHis tag and TEV cleavage site (other)
chain: MHHHHHHSSGENLYFQGKPHKNIGCFAPLSIICQPTCPCPPPILPPERGDAELVTNEFAGDILISNDFIPISQKQLKQTNTTVNIWKNDGIVSLSGTISIYNNRNSTNALSIQIISSTTNTFTALPGNTISYTGFDLQSVSVIDIPSDPSIYIEGRYCFQLTYCKSKRDCL
notes: also called recEna1C; WP_000802321
Regarding B12, the binding result in series [11] is recorded as “binds”.

B13: Ena2C after removal of the 6×His-TEV blocker by TEV protease (other)
chain: MKNKKNIGCFAPLSIICPDPCPPPPPPNPNCERVTNEFAGNFLITNNTIPSAKDASQSMILWQSDGILLISGTVSVYNSTSSTETITIQIVGTVTNIFTVFPGNTISYTGKDLHSVSIINITSNPSLYLEGKYCCEFTCCL
notes: also called short L-like Ena2C filaments
B13: the binding result in series [12] is given as “binds”.

B14: Ena1B-DE-Flag insertion variant (other)
chain: MGNCSTNLSCCANGQKTIVQDKVCIDWTAAATAAIIYADNISQDIYASGYLKVDTGSDYKDDDDKGSGPVTIVFYSGGVTGTAVETIVVATGSSASFTVRRFDTVTILGTAAAETGEFCMTIRYTLS
On to B14, for which the binding result in series [10] is “binds”.
